Here are results for four substances from patent publication EP0717753B1.

The target in experiment [1] is Epidermal Growth Factor Receptor (UniProt P00533). The experiment is described as follows: cell-based or functional assay.
Experiment [2] has the same target. Description: radioimmunoassay on fixed A431 cells, 125I anti-mouse Ig secondary antibody.
The target of experiment [3] is p185 HER2/neu (UniProt P04626). Description: radioimmunoassay on fixed SKBR3 cells (non-target cell line for Mint5), 125I anti-mouse Ig secondary antibody.
For experiment [4], the target named is p185 HER2/neu (UniProt P04626). The experiment is described as follows: radioimmunoassay on fixed SKBR3 cells, 125I anti-mouse Ig secondary antibody.
Experiment [5] concerns the target Epidermal Growth Factor Receptor (UniProt P00533). Description: radioimmunoassay on fixed A431 cells (non-target cell line for MGR6), 125I anti-mouse Ig secondary antibody.

In experiment [1], “immunoconjugate Mint5 - Ocymoidine (antibody)” yielded an INHIBITION OF CELL PROLIFERATION: IC50 CELL LINE A431, protocol A of 1.9e-12; an INHIBITION OF CELL PROLIFERATION: IC50 CELL LINE A431, protocol B of 3.2e-11; an INHIBITION OF PROTEIN … IN CELL SYSTEM: IC50 CELL LINE A431, protocol A of 1e-11; an INHIBITION OF PROTEIN … IN CELL SYSTEM: IC50 CELL LINE A431, protocol B of 1e-11. The substance further showed a % binding in experiment [2] of 78.5%. Also, the % binding with p185 HER2/neu [3] was 9.38%.

As for “immunoconjugate MGR6 - Piramidatine (antibody)”, in the experiment with p185 HER2/neu [4], the % binding was 105%.

In experiment [1], “immunoconjugate Mint5 - Piramidatine (antibody)” registered an INHIBITION OF CELL PROLIFERATION: IC50 CELL LINE A431, protocol A of 1.3e-12; an INHIBITION OF CELL PROLIFERATION: IC50 CELL LINE A431, protocol B of 4.2e-11; an INHIBITION OF PROTEIN … IN CELL SYSTEM: IC50 CELL LINE A431, protocol A of 1e-11; an INHIBITION OF PROTEIN … IN CELL SYSTEM: IC50 CELL LINE A431, protocol B of 1e-11. Moreover, the % binding in experiment [2] turned out to be 110%. The substance also had a % binding in the experiment with p185 HER2/neu [3] of 18.8%.

As for “immunoconjugate MGR6 - Ocymoidine (antibody)”, the % binding in experiment [5] amounted to 15.3%; with p185 HER2/neu [4], 87.5%.
